Measured values as given in patent US20120045438A1 (Janssen / Centocor, published 2012).

B1: Fab clone 1B05 (IL-13-62 library) (Fab, V domains shown)
VH: QVTLKESGPVLVKPTETLTLTCTVSGFSLSTYGMGVGWIRQPPGKALEWLAHIWWDDVKRYNPALKSRLTISKDTSKSQVVLTMTNMDPVDTATYYCARMGSDYDVWFDYWGQGTLVTVSS
VL: EIVLTQSPATLSLSPGERATLSCRASKSISKYLAWYQQKPGQAPRLLIYSGSTLQSGIPARFSGSGSGTDFTLTISSLEPEDFAVYYCQQHDRDPYTFGQGTKLEIK
notes: Fab on phage pIX
B2: Fab clone 1C09 (IL-13-62 library) (Fab, V domains shown)
VH: QVTLKESGPVLVKPTETLTLTCTVSGFSLSTYGMGVGWIRQPPGKALEWLAHIWWDDVKRYNPALKSRLTISKDTSKSQVVLTMTNMDPVDTATYYCARMGSDYDVWFDYWGQGTLVTVSS
VL: EIVLTQSPATLSLSPGERATLSCRASKSISKYLAWYQRKPGQAPRLLIYSGSTLQSGIPARFSGSGSGTDFTLTISSLEPEDFAVYYCQQHNEAPYTFGQGTKLEIK
notes: Fab on phage pIX
B3: Fab clone 1D01 (IL-13-62 library) (Fab, V domains shown)
VH: QVTLKESGPVLVKPTETLTLTCTVSGFSLSTYGMGVGWIRQPPGKALEWLAHIWWDDVKRYNPALKSRLTISKDTSKSQVVLTMTNMDPVDTATYYCARMGSDYDVWFDYWGQGTLVTVSS
VL: EIVLTQSPATLSLSPGERATLSCRASKSISKYLAWYQQKPGQAPRLLIYSGSTLQSGIPARFSGSGSGTDFTLTISSLEPEDFAVYYCQQHSYGPYTFGQGTKLEIK
notes: Fab on phage pIX
B4: Fab clone 1C07 (IL-13-62 library) (Fab, V domains shown)
VH: QVTLKESGPVLVKPTETLTLTCTVSGFSLSTYGMGVGWIRQPPGKALEWLAHIWWDDVKRYNPALKSRLTISKDTSKSQVVLTMTNMDPVDTATYYCARMGSDYDVWFDYWGQGTLVTVSS
VL: EIVLTQSPATLSLSPGERATLSCRASKSISKYLAWYQQKPGQAPRLLIYSGSTLQSGIPARFSGSGSGTDFTLTISSLEPEDFAVYYCQQHESGPYTFGQGTKLEIK
notes: Fab on phage pIX
B5: Fab clone 1F04 (IL-13-62 library) (Fab, V domains shown)
VH: QVTLKESGPVLVKPTETLTLTCTVSGFSLSTYGMGVGWIRQPPGKALEWLAHIWWDDVKRYNPALKSRLTISKDTSKSQVVLTMTNMDPVDTATYYCARMGSDYDVWFDYWGQGTLVTVSS
VL: EIVLTQSPATLSLSPGERATLSCRASKSISKYLAWYQQKPGQAPRLLIYSGSTLQSGIPARFSGSGSGTDFTLTISSLEPEDFAVYYCQQHSSGPYTFGQGTKLEIK
notes: Fab on phage pIX
B6: Fab clone 1H05 (IL-13-62 library) (Fab, V domains shown)
VH: QVTLKESGPVLVKPTETLTLTCTVSGFSLSTYGMGVGWIRQPPGKALEWLAHIWWDDVKRYNPALKSRLTISKDTSKSQVVLTMTNMDPVDTATYYCARMGSDYDVWFDYWGQGTLVTVSS
VL: EIVLTQSPATLSLSPGERATLSCRASKSISKYLAWYQQKPGQAPRLLIYSGSTLQSGIPARFSGSGSGTDFTLTISSLEPEDFAVYYCQQQDYGPYTFGQGTKLEIK
notes: Fab on phage pIX
B7: Fab clone 1G05 (IL-13-62 library) (Fab, V domains shown)
VH: QVTLKESGPVLVKPTETLTLTCTVSGFSLSTYGMGVGWIRQPPGKALEWLAHIWWDDVKRYNPALKSRLTISKDTSKSQVVLTMTNMDPVDTATYYCARMGSDYDVWFDYWGQGTLVTVSS
VL: EIVLTQSPATLSLSPGERATLSCRASKSISKYLAWYQQKPGQAPRLLIYSGSTLQSGIPARFSGSGSGTDFTLTISSLEPEDFAVYYCQQQDIGPYTFGQGTKLEIK
notes: Fab on phage pIX
B8: Fab clone 1D02 (IL-13-62 library) (Fab, V domains shown)
VH: QVTLKESGPVLVKPTETLTLTCTVSGFSLSTYGMGVGWIRQPPGKALEWLAHIWWDDVKRYNPALKSRLTISKDTSKSQVVLTMTNMDPVDTATYYCARMGSDYDVWFDYWGQGTLVTVSS
VL: EIVLTQSPATLSLSPGERATLSCRASKSISKYLAWYQQKPGQAPRLLIYSGSTLQSGIPARFSGSGSGTDFTLTIGSLEPEDFAVYYCQQHDWSPYTFGQGTKLEIK
notes: Fab on phage pIX
B9: Fab clone 1H02 (IL-13-62 library) (Fab, V domains shown)
VH: QVTLKESGPVLVKPTETLTLTCTVSGFSLSTYGMGVGWIRQPPGKALEWLAHIWWDDVKRYNPALKSRLTISKDTSKSQVVLTMTNMDPVDTATYYCARMGSDYDVWFDYWGQGTLVTVSS
VL: EIVLTQSPATLSLSPGERATLSCRASKSISKYLAWYQQKPGQAPRLLIYSGSTLQSGIPARFSGSGSGTDFTLTISSLEPEDFAVYYCQQHLLGPYTFGQGTKLEIK
notes: Fab on phage pIX
B10: Fab clone 1H06 (IL-13-62 library) (Fab, V domains shown)
VH: QVTLKESGPVLVKPTETLTLTCTVSGFSLSTYGMGVGWIRQPPGKALEWLAHIWWDDVKRYNPALKSRLTISKDTSKSQVVLTMTNMDPVDTATYYCARMGSDYDVWFDYWGQGTLVTVSS
VL: EIVLTQSPATLSLSPGERATLSCRASKSISKYLAWYQQKPGQAPRLLIYSGSTLQSGIPARFSGSGSGTDFTLTISSLEPEDFAVYYCQQHDWAPYTFGQGTKLEIK
notes: Fab on phage pIX
B11: Fab clone 1F12 (IL-13-62 library) (Fab, V domains shown)
VH: QVTLKESGPVLVKPTETLTLTCTVSGFSLSTYGMGVGWIRQPPGKALEWLAHIWWDDVKRYNPALKSRLTISKDTSKSQVVLTMTNMDPVDTATYYCARMGSDYDVWFDYWGQGTLVTVSS
VL: EIVLTQSPATLSLSPGERATLSCRASKSISKYLAWYQQKPGQAPRLLIYSGSTLQSGIPARFSGSGSGTDFTLTISSLEPEDFAVYYCQQHNHGPYTFGQGTKLEIK
notes: Fab on phage pIX
B12: Fab clone 1D08 (IL-13-62 library) (Fab, V domains shown)
VH: QVTLKESGPVLVKPTETLTLTCTVSGFSLSTYGMGVGWIRQPPGKALEWLAHIWWDDVKRYNPALKSRLTISKDTSKSQVVLTMTNMDPVDTATYYCARMGSDYDVWFDYWGQGTLVTVSS
VL: EIVLTQSPATLSLSPGERATLSCRASKSISKYLAWYQQKPGQAPRLLIYSGSTLQSGIPARFSGSGSGTDFTLTISSLEPEDFAVYYCQQHDWEPYTFGQGTKLEIK
notes: Fab on phage pIX
B13: Fab clone 1F05 (IL-13-62 library) (Fab, V domains shown)
VH: QVTLKESGPVLVKPTETLTLTCTVSGFSLSTYGMGVGWIRQPPGKALEWLAHIWWDDVKRYNPALKSRLTISKDTSKSQVVLTMTNMDPVDTATYYCARMGSDYDVWFDYWGQGTLVTVSS
VL: EIVLTQSPATLSLSPGERATLSCRASKSISKYLAWYQQKPGQAPRLLIYSGSTLQSGIPARFSGSGSGTDFTLTISSLEPEDFAVYYCQQHVGGPYTFGQGTKLEIK
notes: Fab on phage pIX
B14: Fab clone 1F11 (IL-13-62 library) (Fab, V domains shown)
VH: QVTLKESGPVLVKPTETLTLTCTVSGFSLSTYGMGVGWIRQPPGKALEWLAHIWWDDVKRYNPALKSRLTISKDTSKSQVVLTMTNMDPVDTATYYCARMGSDYDVWFDYWGQGTLVTVSS
VL: EIVLTQSPATLSLSPGERATLSCRASKSISKYLAWYQQKPGQAPRLLIYSGSTLQSGIPARFSGSGSGTDFTLTISSLEPEDFAVYYCQQHSVGPYTFGQGTKLEIK
notes: Fab on phage pIX
B15: Fab clone 1C06 (IL-13-62 library) (Fab, V domains shown)
VH: QVTLKESGPVLVKPTETLTLTCTVSGFSLSTYGMGVGWIRQPPGKALEWLAHIWWDDVKRYNPALKSRLTISKDTSKSQVVLTMTNMDPVDTATYYCARMGSDYDVWFDYWGQGTLVTVSS
VL: EIVLTQSPATLSLSPGERATLSCRASKSISKYLAWYQQKPGQAPRLLIYSGSTLQSGIPARFSGSGSGTDFTLTISSLEPEDFAVYYCQQHSWGPYTFGQGTKLEIK
notes: Fab on phage pIX

Biological target: T1, human IL-13 R130Q variant (R110Q of the mature chain) (human, UniProt P35225 35-146, Biotinylated on amines (NHS-LC-biotin, 4:1) in ELISA, panning and competition assays. The letters are unchanged.)
T1 construct: R130Q counts from Met 1 of the signal peptide, R110Q on the mature chain; Bought from Peprotech; also called IL-13 R110Q; b-R130Q
Assay: single-point (10 nM) phage Fab ELISA on biotinylated IL-13 R130Q

| Binder | Signal (% of Lc16Hc7) |
| --- | --- |
| B1 | 108% |
| B2 | 152% |
| B3 | 144% |
| B4 | 136% |
| B5 | 108% |
| B6 | 172% |
| B7 | 144% |
| B8 | 117% |
| B9 | 148% |
| B10 | 139% |
| B11 | 100% |
| B12 | 116% |
| B13 | 144% |
| B14 | 108% |
| B15 | 172% |
